Patent US20250092154A1 (UCI THERAPEUTICS, published 2025)

B1: mesothelin-specific scFv #45 (purified from E. coli) (scFv)
scFv: DIVLTQSPAIMSTSPGEKVTMTCTASSSVSYMHWYQQKSGTSPKRWIYDTSKLASGVPARFSGSGSGTSYSLTISRMEAEDAATYYCQQWSSYPLTFGAGTKLEMKRGGGGSGGGGSGGGGSQVQLQQPGAELVKPGASVKLSCKASGYTFTSYWMHWVKQRPGQGLEWIGMIHPNSGGTNYNEKFKSKATLTVDKSSSTAYMQLSSLTSEDSAVYYCARYYYGNYVWYFDVWGTGTTVTVSA
notes: also called anti-MSLN scFv; not shown: His tag (Ni-NTA purification, anti-HISx6 detection) and any other pmopac12 vector tag
B2: mesothelin-specific CAR comprising humanized scFv #19-1, on cells (293T cells; PBNK cells) (receptor)
chain: EIVLTQSPATLSLSPGERATLSCSASSSVSYMHWYQQKPGQAPRLLIYDTSKLASGIPARFSGSGSGTDFTLTISSLEPEDFAVYYCQQWSSNPLTFGQGTKLEIKRGGGGSGGGGSGGGGSQVQLVQSGAEVKKPGASVKVSCKASGYTFTDYNMNWVRQAPGQGLEWMGVINPNYGTTSYNQKFKGRVTMTRDTSTSTVYMELSSLRSEDTAVYYCARGDYDGAGFAYWGQGTLVTVSSTTTPAPRPPTPAPTIASQPLSLRPEACRPAAGGAVHTRGLDFACDIYIWAPLAGTCGVLLLSLVITLYCKRGRKKLLYIFKQPFMRPVQTTQEEDGCSCRFPEEEEGGCELRVKFSRSADAPAYKQGQNQLYNELNLGRREEYDVLDKRRGRDPEMGGKPRRKNPQEGLYNELQKDKMAEAYSEIGMKGERRRGKGHDGLYQGLSTATKDTYDALHMQALPPR
notes: also called #19-1 CAR; MSLN-CAR
B3: mesothelin-specific scFv #19 (purified from E. coli) (scFv)
scFv: DIVITQSPAIMSASPGEKVTMTCSASSSVSYMHWYQQKSGTSPKRWIYDTSKLASGVPARFSGSGSGTSYSLTISSMEAEDAATYYCQQWSSNPLTFGAGTKLEIKRGGGGSGGGGSGGGGSQVQLQQSGPELVKPGASVKISCKASGYSFTDYNMNWVKQSNGKSLEWIGVINPNYGTTSYNQKFKGKATITADTSSNTAYLQLSSLTSEDSAVYYCAKGDYDGAGFAYWGQGTLVTVSA
notes: also called mouse scFv #19; anti-MSLN scFv; not shown: His tag (Ni-NTA purification, anti-HISx6 detection) and any other pmopac12 vector tag
B4: humanized antibody #19-1 (#19-1 scFv-Fc) (Fc fusion)
scFv: EIVLTQSPATLSLSPGERATLSCSASSSVSYMHWYQQKPGQAPRLLIYDTSKLASGIPARFSGSGSGTDFTLTISSLEPEDFAVYYCQQWSSNPLTFGQGTKLEIKRGGGGSGGGGSGGGGSQVQLVQSGAEVKKPGASVKVSCKASGYTFTDYNMNWVRQAPGQGLEWMGVINPNYGTTSYNQKFKGRVTMTRDTSTSTVYMELSSLRSEDTAVYYCARGDYDGAGFAYWGQGTLVTVSS
notes: Expressed in ExpiCHO as #19-1 scFv-Fc and purified by protein A and SEC; also called humanized scFv #19-1; scFv antibody #19-1; not shown: Human IgG-Fc tag fused C-terminal to the scFv, and any hinge or linker to it

What was measured:
MSLN mature form-his [1] = target: T1, MSLN mature form-his (human, UniProt Q13421 296-598, biotinylated (site not stated) in the ELISA of Example 2; detected with SA-APC in the yeast single-clone FACS); assay: Direct-binding ELISA: scFv coated on the plate, biotinylated MSLN mature form-his titrated (M), streptavidin-HRP, A450
T1 construct: also called mesothelin mature form-his antigen; biotinylated MSLN-his; not shown: His tag
T1 sequence (Q13421 other isoform, or with tags, fused parts or gaps limits assumed): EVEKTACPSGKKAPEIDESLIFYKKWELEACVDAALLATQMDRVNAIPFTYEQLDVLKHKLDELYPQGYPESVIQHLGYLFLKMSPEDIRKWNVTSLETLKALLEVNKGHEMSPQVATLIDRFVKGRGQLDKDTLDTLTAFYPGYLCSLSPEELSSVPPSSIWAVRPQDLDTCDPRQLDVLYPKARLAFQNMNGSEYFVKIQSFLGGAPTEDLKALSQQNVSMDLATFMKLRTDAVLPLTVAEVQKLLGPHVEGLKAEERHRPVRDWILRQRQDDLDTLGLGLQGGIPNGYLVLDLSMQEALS
Description: (§1) 100 ng of the scFv protein purified in Example 1 was added to each well of a plate and refrigerated for 15 hours, thereby coating the plate with the protein. After incubation, each well was blocked with 200 μL of PBS (3% BSA) for 1 hour at room temperature. Biotinylated MSLN-his protein was serially diluted 1/5 from 10⁻⁶ M and then bound to the anti-MSLN scFv, coated on the ELISA plate, for 1 hour at room temperature. Each well was washed three times with PBST (0.05% tween 20) wash buffer, and then treated with HRP-conjugated streptavidin (Abcam) (diluted 40,000:1) for detection of biotinylated […] and incubated at room temperature for 1 hour. Each well was washed three times with PBST (0.05% tween20) wash buffer, and then treated with TMB and incubated at room temperature for 20 minutes. After treatment with 2M H₂SO₄, the absorbance at 450 nm was measured.

MSLN mature form-his [2] = target: T1, MSLN mature form-his; assay: Direct-binding ELISA: scFv coated on the plate, biotinylated MSLN mature form-his titrated, streptavidin-HRP, A450; the half-maximal value is headed 'IC50 (M)' in the drawn table, row 'Mature MSLN'
Description: as §1

MSLN (ACRO) = target: T2, MSLN (ACRO) (human, UniProt Q13421, PE-conjugated (site not given)); assay: FACS of PBNK cells transduced with the #19-1 CAR, stained with PE-conjugated MSLN antigen 'MSLN (ACRO)' (B4-A vs SSC-A); also printed as 26%; Mock (empty vector) cells 0.24
T2 construct: soluble antigen, PE-conjugated; also called PE-conjugated MSLN antigen
T2 sequence (Q13421 other isoform, or with tags, fused parts or gaps limits assumed): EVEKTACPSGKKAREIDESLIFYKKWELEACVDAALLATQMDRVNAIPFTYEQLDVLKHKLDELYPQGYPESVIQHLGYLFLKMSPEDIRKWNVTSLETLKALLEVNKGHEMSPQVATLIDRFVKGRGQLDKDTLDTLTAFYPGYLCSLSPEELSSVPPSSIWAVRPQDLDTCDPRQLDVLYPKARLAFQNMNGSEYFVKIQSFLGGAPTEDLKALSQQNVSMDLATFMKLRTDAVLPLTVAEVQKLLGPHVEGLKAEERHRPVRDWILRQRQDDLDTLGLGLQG
Source text: A mesothelin-specific chimeric antigen receptor construct virus was produced in the same manner as in Example 8 above, and then natural killer cells were used as immune 5 effector cells to be genetically engineered to express the chimeric antigen receptor. As such natural killer cells, PBMC (Human PB MNC) cells were purchased from StemCell, cultured for 10 days, and used after differentiation into PBNK cells. PBMC and PBNK cells, as well as lentivirus-transduced PBNK cells described below, were all cultured in NK MACS medium containing 100 µg/mL of streptomycin, 100 units/mL of penicillin, 10 ng/mL of rhIL-15, and 500 IU of rhIL-2. Culture of all cells was performed in a 5% CO₂ (95% air) environment at 37° C. For expression of the mesothelin-specific CAR, 5×10⁵ PBNK cells and the produced antigen receptor construct virus with an MOI of 2 were added to a 24-well plate, and then for induction of transduction, PGE2 (prostaglandin E2) and LentiBOOST (lentiviral gene transfer inducer) were used, thereby generating NK cells expressing the mesothelin-specific CAR. […]

[3] = target: T3, biotinylated mesothelin of SEQ ID NO: 1 (human, UniProt Q13421 296-598, biotinylated (site not stated)); assay: FACS of 293T cells transduced with the #19-1 CAR, biotinylated mature mesothelin plus PE-streptavidin (B4-A vs SSC-A)
T3 construct: also called biotinylated mature form of the mesothelin antigen
Description: The generated cells were cultured for 2 days. […] Then, biotin was fluorescently labeled using PE-conjugated streptavidin protein and FACS analysis was performed.

[4] = target: T4, recombinant human mature MSLN (SEQ ID NO: 1) (human, UniProt Q13421 296-598); assay: SPR, mature MSLN immobilized on CM5 chip, #19-1 scFv-Fc injected in two-fold dilutions, 1:1 depletion corrected binding model
T4 construct: Immobilized by amide coupling on a CM5 chip for SPR; also called mesothelin; recombinant human mesothelin protein antigen
Description: The binding affinity of the humanized antibody #19-1 purified in Example 6 to mesothelin was evaluated by surface plasmon resonance (SPR) method. First, recombinant human mature MSLN (SEQ ID NO: 1) was immobilized by an amide bond on the surface of a carboxymethyldextran (CM5) chip at densities of about 560 RU and 520 RU. Next, two-fold serial dilutions of humanized antibody #19-1 were injected at a constant flow rate. The association and dissociation rates of the protein complex (complex of humanized antibody #19-1 and mature MSLN) were monitored for 180 and 540 seconds, respectively. Referencing was performed on a blank flow cell. Finally, the binding affinity of humanized antibody #19-1 to mesothelin was determined using the 1:1 depletion corrected binding model.

Row | Binder | EC50 (read off the curve) (MSLN mature form-his [1]) | IC50 (MSLN mature form-his [2]) | % Parent in gate P24 (MSLN (ACRO)) | % Parent in gate P4 (cells binding 'Mature MSLN') [3] | Kd [4]
1 | B1 | ~8 nM | 9.43 nM | – | – | –
2 | B2 | – | – | 25.6% | 54.8% | –
3 | B3 | ~3 nM | 2.43 nM | – | – | –
4 | B4 | – | – | – | – | 80.8 nM
